Measured values reported in patent EP4036575A1.

Molecular target: mouse recombinant His-calmodulin (mouse), P0DP26

INLKALAALAKKIL (modifications not checked) [Mastoparan, P01514 1-14]
Kd: 1.2 nM
